Read-outs that look alike come from different tables or passages of the source.
Key:
Assay in all cases: fluorescence polarization
[1] = target: T1, DNA polymerase iota catalytic core (hpol ι26-446) (Homo sapiens, UniProt Q9UNA4 26-446)
T1 sequence: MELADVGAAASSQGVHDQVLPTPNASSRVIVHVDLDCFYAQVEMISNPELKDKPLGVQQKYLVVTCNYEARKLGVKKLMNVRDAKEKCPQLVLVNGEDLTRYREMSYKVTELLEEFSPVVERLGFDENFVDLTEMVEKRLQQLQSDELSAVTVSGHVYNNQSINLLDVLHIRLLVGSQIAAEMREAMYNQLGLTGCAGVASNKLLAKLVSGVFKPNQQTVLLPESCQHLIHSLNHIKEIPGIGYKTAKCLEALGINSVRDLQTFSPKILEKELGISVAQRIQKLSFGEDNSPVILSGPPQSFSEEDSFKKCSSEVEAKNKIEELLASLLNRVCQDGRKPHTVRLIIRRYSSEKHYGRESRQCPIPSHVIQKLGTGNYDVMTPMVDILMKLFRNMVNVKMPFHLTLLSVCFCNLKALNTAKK

[2] = target: T2, DNA polymerase kappa catalytic core (hpol κ19-526) (Homo sapiens, UniProt Q9UBT6 19-526)
T2 sequence: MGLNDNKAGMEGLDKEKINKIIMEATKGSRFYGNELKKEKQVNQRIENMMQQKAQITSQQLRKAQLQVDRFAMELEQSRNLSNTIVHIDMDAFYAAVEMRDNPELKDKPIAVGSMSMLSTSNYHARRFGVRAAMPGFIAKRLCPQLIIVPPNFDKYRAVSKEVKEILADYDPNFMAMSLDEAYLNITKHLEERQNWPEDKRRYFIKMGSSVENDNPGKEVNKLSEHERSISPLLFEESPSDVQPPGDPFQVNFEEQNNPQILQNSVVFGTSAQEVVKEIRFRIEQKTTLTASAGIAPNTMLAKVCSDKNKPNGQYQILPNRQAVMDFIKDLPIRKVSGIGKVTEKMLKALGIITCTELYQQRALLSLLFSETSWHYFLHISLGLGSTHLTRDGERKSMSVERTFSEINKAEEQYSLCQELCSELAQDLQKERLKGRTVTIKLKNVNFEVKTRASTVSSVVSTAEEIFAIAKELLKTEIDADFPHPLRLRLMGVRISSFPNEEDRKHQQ

[3] = target: T1, DNA polymerase iota catalytic core …; remark: listed apart in the source
[4] = target: T2, DNA polymerase kappa catalytic core …; remark: listed apart in the source
[5] = target: T1, DNA polymerase iota catalytic core …; remark: listed apart in the source
[6] = target: T1, DNA polymerase iota catalytic core …; remark: listed apart in the source
[7] = target: T1, DNA polymerase iota catalytic core …; remark: listed apart in the source
[8] = target: T2, DNA polymerase kappa catalytic core …; remark: listed apart in the source

B1: FAM-13/18mer primer-template DNA (dsDNA)
DNA 1: TTTGGGGGAAGGATTC
DNA 2: TCACGGAATCCTTCCCCC
- Kd [1]: 5.5 ± 0.7 nM
- Kd [2]: 13.7 ± 5.1 nM
- Kd [3]: 6.3 ± 0.9 nM
- Kd [4]: 19 ± 5.6 nM
- Kd [5]: 8.8 ± 1.3 nM
- Kd [6]: 9.1 ± 1.6 nM
- Kd [7]: 5.3 ± 0.7 nM
- Kd [8]: 11.1 ± 5.1 nM

From article PMC3578163 (Chemical research in toxicology, 2013)
